The term Km denotes the concentration of substrate that gives half-maximal velocity. As usually defined, the kcat is the maximal rate divided by the concentration of active sites.

For two molecules, Km and kcat results are on record in article PMC8928434, “Production of Putrescine and Cadaverine by Paucilactobacillus wasatchensis” (Frontiers in Microbiology, 2022).

One data set deals with Odc2_C19 (Odc2). Particulars: 50 mM phosphate pH 5.5, 50 μM pyridoxal 5'-phosphate, 37°C; substrate 1-50 mM. From the text: HPLC of o-phthalaldehyde-derivatized amine product (decarboxylation), Michaelis-Menten fit on Odc2_C19 (Odc2)
Substrate in data set [1]: NCCCC[C@H](N)C(=O)O
In words: HPLC of o-phthalaldehyde-derivatized amine product (decarboxylation), Michaelis-Menten fit. The following applies: 50 mM phosphate pH 5.5, 50 μM pyridoxal 5'-phosphate, 37°C, substrate 1-50 mM. It is filed as biochemical, Paucilactobacillus wasatchensis.

Regarding `NCCCC[C@H](N)C(=O)O` [L-Lysine], the Km in the data set with Odc2_C19 (Odc2) was determined as 20.2 mM.

B1: Odc1_Lw35 (Odc1) (Paucilactobacillus wasatchensis) (protein)
chain: MKLLGIACSEEAQKYFKTTRDIIDAEKDSDFTDVAAIVLTEDDLDLINKIDETHFDIPVFLITNDAAKIDKDLRAKIYHLIDDDAKYTNMYDGEIEAAAVEYEKKMMPPFFEELQKYADEGNLSFTTPGHHAGKFFMRHPAGRWLVNYYGENLFRSDLSSSDVAVGDLLTHGGAPLSAEQHAAKVFNADKTYFVMNGTSTSNAIVTSAAVAPGDLVLFDRNNHKSSYISALENAGGIPIYLQTERNPFGFIGGISDAVFNEKHIRELIAKVDPKRAKEKRPIRLAIIELGTYDGSIYDARQVVDRIGSLCDYIQFDSAWVGYEQFIPMMKPSSPLLLDLGPEDPGILVTQSVHKQQAALSQGSQIHKKDKHIKGQKRYITHKRFNNAYMKYTSTSPFYPMYASLDVNAYLMEGKAGAEMWKNTVKLGIEARKRMLNESKLFTPFIPTVVNGKKWEDGDTEEMADNLDFWRFKKGESWHSFEGYADNQYYIDPLKVMFKTPGINMETGEYEDFGIPATILASYLREHGIVPEKSDLNSILFLLTPAETKTKLDNLVNLILRFEDLIEKDEKLENVLPHVYADNASRYRGYTIRQLCQEMHNFYKQSNAKKFQKELFQEATLPEQAMTPYAADKELIRNNAELIPLQDIVGRVALEGGLPYPPGIFVIAPGERWTESAQKYFLILQDGINQFPGFSPEIQGVYNEPQADGKVKAYGYVLDDESVIKKN
notes: full length (native 726 aa), C-terminal His-tag (pEG-His1, BamHI/SalI), E. coli BL21(DE3), Ni-TED purified
As for B1, in data set [1], the Km stood at 16.0 ± 1.8 mM and the kcat is 3 ± 0.1 s⁻¹.
